Results published in publication PMC5827449, “Structural analysis of group II chitinase (ChtII) catalysis completes the puzzle of chitin hydrolysis in insects” (The Journal of Biological Chemistry, 2018).

Tests used:
[1] = substrate: CC(=O)N[C@H]1[C@H](Oc2ccc3c(C)cc(=O)oc3c2)O[C@H](CO)[C@@H](O[C@@H]2O[C@H](CO)[C@@H](O)[C@H](O)[C@H]2NC(C)=O)[C@@H]1O; experiment: fluorescence of released 4-methylumbelliferone; type: biochemical, Ostrinia furnacalis; details: pH 6.0, 20 mM sodium phosphate, 303 K, 20 min, 30.0 °C
Description: fluorescence of released 4-methylumbelliferone on OfChtII-C2

[2] = substrate: CC(=O)N[C@H]1[C@H](Oc2ccc3c(C)cc(=O)oc3c2)O[C@H](CO)[C@@H](O[C@@H]2O[C@H](CO)[C@@H](O)[C@H](O)[C@H]2NC(C)=O)[C@@H]1O; experiment: fluorescence of released 4-methylumbelliferone; type: biochemical, Ostrinia furnacalis; details: pH 6.0, 20 mM sodium phosphate, 303 K, 20 min, 30.0 °C; remark: listed apart in the source
Description: fluorescence of released 4-methylumbelliferone on OfChi-h

Row | Protein | Km [1] | kcat [1] | kcat/Km [1] | Km [2] | kcat [2] | kcat/Km [2]
1 | OfChtII-C2 (Ostrinia furnacalis) (protein, single GH18 catalytic domain C2 (barrel 2059-2301 and 2377-2426); His-tag purified from Pichia pastoris GS115) ERFKVVCYYTNWAWYRPDNGKYTPGDINPELCTHIIYAFAVLDKEELVIKSHDIWLDVENKFYEKVTALKSHGVKVLLGLGGWDDSAGDKYSRLVNNVSARRKFVVHAVDFLEQYGFDGLDLDWEYPKCWQVECEKGPDSDKQGFADLVKELRKAFNRRGMLLSAAVSASKRVIDYAYNVPALSMNLDWISLMTYDYHGQWDKKTGHVAPMYVHDKDTDNTFNVNFTVNYWINKGADRKKLVVGVPFYGQSFSVVEGAGTGLGAPTYAGGEAGDETRARGFLSFYEICERVKVKGWKVHRDPGGRIGPYATHDDQWVSFDDDFMARHKAEYVRAMELGGSMAWSLDLDDFTGKYCGCGKAPLLTTINHVLRGKEAPPPCIL | 11.93 ± 0.50 µM | 0.2037 ± 0.0025 s⁻¹ | 17000 M⁻¹ s⁻¹ |  |  | 
2 | OfChi-h (Ostrinia furnacalis) (protein) APPGKPSLGWGERTFAIVEVNQAATAYNQLVTKRDSADVSVTWNVWSGDPADKARVLLNDKEFWSGTGGAAGSASFKVKKGGRYQMVVELCNADGCSQSDATEIIVADTDGSHLPPLDYNMGEKNKPFKQTSGKVVGAYFVEWGVYPRKFPVDRVPIPNLTHLLYGFIPICGGDGINDSLKEIEGSFQALQRSCSGREDFKVSIHDPWAALQKPQKGLSSWNEPYKGNFGQLMMLKQAKPDLKILPSIGGWTLADPFFFFTDETKRRRFVASVKDFLQTWKFFDGVDIDWEFPGGKGANPNLGSPKDGEIYVLLMKELREMLNELSAETGRKYELTSAISAGWDKIQVVDYSAAQKYMDHIFFMSYDFKGAWSNDTLGHQASLYAPDWNEKETYTTDFGVQFLLAQGVSPKKIVVGVAMYGRGWTGVHGYKDNNPFTGNATGPVKGTWQDGVVDYREIATEIAQGKWEYHYDKVAQAPYVFRPATGDLITYDDARSTIEKGKYVRANKLGGLFAWEIDADNGDILNAMNMGLGNSA |  |  |  | 7.32 ± 0.35 µM | 3.1378 ± 0.0885 s⁻¹ | 429000 M⁻¹ s⁻¹
